Reference: patent US6790633

Target: T1, rat brain farnesyl:protein transferase (rat, UniProt Q04631 2-377; Q02293 1-437)
Assay: cell-based or functional assay

CVIA and CVAM cannot be ordered by “fold decrease in affinity for the enzyme against CVIM, as estimated by the concentration required for 50% inhibition” value: greater than 30 fold for the first, greater than 30 fold for the second.

Going from CVIL to CVFM, the “concentration giving 50% inhibition” value falls from 12 µM to 0.025 µM (480-fold).

Compared with CKIM, CEIM is 2.1-fold higher in “concentration giving 50% inhibition” value: 0.7 µM for the first, 1.5 µM for the second.

First: CGIM
Second: CPIM
The “concentration giving 50% inhibition” value of the first is 2-fold lower: 4 µM for the first, 8 µM for the second.

Compared with CVPM, CVIF is 40-fold lower in “concentration giving 50% inhibition” value: 20 µM for the first, 0.5 µM for the second.

With CVFM the “fold increase in affinity for the enzyme against CVIM” value was 6 fold.

Target: T1, rat brain farnesyl:protein transferase
Assay: cell-based or functional assay
Remark: another data set of the same source

CVIM and CIIM are the same in “Concentration For 50% Inhibition” value: 0.15 µM for the first, 0.15 µM for the second.

CVVM and CVLM are the same in “Concentration For 50% Inhibition” value: 0.15 µM for the first, 0.15 µM for the second.

CAIM and CSIM are within 1.5-fold of each other in “Concentration For 50% Inhibition” value: 0.15 µM for the first, 0.2 µM for the second.

CCVQ and CIIC are the same in “Concentration For 50% Inhibition” value: 0.35 µM for the first, 0.35 µM for the second.

Compared with CIIS, CVIS is 2.9-fold higher in “Concentration For 50% Inhibition” value: 0.35 µM for the first, 1 µM for the second.

First: CVLS
Second: CVIA
The “Concentration For 50% Inhibition” value of the first is 1.7-fold lower: 3 µM for the first, 5 µM for the second.

Going from CVIL to CLIL, the “Concentration For 50% Inhibition” value rises from 11 µM to 17 µM (1.5-fold).

CLLL and CTVA are within 1.5-fold of each other in “Concentration For 50% Inhibition” value: 22 µM for the first, 30 µM for the second.

Compared with CAIL, CIKS is higher in “Concentration For 50% Inhibition” value: 100 µM for the first, greater than 100 µM for the second.
